Laboratory results from publication PMC5968753, “Radical transfer in E. coli ribonucleotide reductase: a NH2Y731/R411A-α mutant unmasks a new conformation of the pathway residue 731† †Electronic supplementary information (ESI) available. See DOI: 10.1039/c5sc03460d” (Chemical Science, 2015).

T1: R411A-α2 (E. coli class Ia ribonucleotide reductase subunit α2 with the R411A substitution) (E. coli, UniProt P00452 1-761, R411A)
T1 construct: Ribonucleoside-diphosphate reductase 1 subunit alpha (α, NrdA), E. coli; GCG (Ala) inserted at position 411; the construct has an N-terminal (His)6-tag with a 10 amino acid linker; Homodimer (α2); source: E. coli, expressed from pET28a-nrdA, purified by previous protocols; pre-reduced with 30 mM DTT and 15 mM HU before use
T1 sequence: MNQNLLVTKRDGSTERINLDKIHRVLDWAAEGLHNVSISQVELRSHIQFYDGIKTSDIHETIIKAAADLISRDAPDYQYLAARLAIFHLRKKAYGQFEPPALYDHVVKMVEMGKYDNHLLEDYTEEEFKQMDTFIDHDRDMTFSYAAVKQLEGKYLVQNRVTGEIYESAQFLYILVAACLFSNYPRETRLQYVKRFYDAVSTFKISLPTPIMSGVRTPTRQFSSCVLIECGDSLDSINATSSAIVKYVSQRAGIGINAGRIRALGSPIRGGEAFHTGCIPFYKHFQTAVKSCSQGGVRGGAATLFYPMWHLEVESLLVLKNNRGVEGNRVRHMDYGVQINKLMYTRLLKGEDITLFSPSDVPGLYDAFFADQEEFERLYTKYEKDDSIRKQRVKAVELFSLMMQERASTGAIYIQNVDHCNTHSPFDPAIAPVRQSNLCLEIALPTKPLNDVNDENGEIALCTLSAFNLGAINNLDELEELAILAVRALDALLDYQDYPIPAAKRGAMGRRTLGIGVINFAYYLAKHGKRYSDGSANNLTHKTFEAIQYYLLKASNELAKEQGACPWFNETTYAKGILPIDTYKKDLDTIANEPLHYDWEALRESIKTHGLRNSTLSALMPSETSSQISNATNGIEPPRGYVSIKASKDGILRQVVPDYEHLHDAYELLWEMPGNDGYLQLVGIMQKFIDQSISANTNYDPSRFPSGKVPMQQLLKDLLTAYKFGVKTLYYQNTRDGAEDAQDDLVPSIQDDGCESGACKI

T2: R411A-α2, E. coli class Ia ribonucleotide reductase subunit α2 with R411A (E. coli, UniProt P00452 1-761, R411A)
T2 construct: E. coli class Ia ribonucleotide reductase subunit alpha (nrdA) with R411A; a 10 amino acid linker follows the N-terminal (His)6-tag; source: pre-reduced with 30 mM DTT and 15 mM HU before use
T2 sequence (looked up): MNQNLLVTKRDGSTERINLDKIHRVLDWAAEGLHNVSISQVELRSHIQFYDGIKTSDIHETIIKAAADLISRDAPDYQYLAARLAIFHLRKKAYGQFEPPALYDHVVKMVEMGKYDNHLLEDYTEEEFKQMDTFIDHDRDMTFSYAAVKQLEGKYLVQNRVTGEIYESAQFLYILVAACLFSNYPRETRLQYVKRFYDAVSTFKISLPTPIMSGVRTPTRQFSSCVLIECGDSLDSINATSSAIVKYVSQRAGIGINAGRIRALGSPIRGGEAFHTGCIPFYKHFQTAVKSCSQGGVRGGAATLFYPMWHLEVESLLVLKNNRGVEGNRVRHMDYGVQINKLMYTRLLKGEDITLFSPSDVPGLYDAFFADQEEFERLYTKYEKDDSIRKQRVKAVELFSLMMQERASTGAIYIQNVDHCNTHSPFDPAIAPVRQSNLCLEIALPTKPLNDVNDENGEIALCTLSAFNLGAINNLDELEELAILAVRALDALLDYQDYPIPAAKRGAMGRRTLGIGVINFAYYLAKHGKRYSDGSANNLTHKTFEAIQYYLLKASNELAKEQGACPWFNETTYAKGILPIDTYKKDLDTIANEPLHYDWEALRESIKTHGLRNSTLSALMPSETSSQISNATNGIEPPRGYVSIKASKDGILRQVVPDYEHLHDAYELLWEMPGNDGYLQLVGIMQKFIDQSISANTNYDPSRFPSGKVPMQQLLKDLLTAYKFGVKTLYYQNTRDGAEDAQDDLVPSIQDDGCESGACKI

T3: NH2Y731/R411A-α2, E. coli class Ia ribonucleotide reductase subunit α2 with 3-aminotyrosine at 731 and R411A (E. coli, UniProt P00452 1-761, R411A, 3-aminotyrosine (NH2Y) at 731 in place of Y731)
T3 construct: E. coli class Ia ribonucleotide reductase subunit alpha (nrdA) with R411A and the unnatural amino acid 3-aminotyrosine incorporated at position 731; a 10 amino acid linker follows the N-terminal (His)6-tag; With β2, CDP and ATP the 3-aminotyrosine at 731 is oxidised to the radical NH2Y731˙ (ND2Y731˙ in D2O); also called ND2Y731˙/R411A-α2; ND2Y731˙/R411A-α; source: pre-reduced with 30 mM DTT and …
T3 sequence (looked up): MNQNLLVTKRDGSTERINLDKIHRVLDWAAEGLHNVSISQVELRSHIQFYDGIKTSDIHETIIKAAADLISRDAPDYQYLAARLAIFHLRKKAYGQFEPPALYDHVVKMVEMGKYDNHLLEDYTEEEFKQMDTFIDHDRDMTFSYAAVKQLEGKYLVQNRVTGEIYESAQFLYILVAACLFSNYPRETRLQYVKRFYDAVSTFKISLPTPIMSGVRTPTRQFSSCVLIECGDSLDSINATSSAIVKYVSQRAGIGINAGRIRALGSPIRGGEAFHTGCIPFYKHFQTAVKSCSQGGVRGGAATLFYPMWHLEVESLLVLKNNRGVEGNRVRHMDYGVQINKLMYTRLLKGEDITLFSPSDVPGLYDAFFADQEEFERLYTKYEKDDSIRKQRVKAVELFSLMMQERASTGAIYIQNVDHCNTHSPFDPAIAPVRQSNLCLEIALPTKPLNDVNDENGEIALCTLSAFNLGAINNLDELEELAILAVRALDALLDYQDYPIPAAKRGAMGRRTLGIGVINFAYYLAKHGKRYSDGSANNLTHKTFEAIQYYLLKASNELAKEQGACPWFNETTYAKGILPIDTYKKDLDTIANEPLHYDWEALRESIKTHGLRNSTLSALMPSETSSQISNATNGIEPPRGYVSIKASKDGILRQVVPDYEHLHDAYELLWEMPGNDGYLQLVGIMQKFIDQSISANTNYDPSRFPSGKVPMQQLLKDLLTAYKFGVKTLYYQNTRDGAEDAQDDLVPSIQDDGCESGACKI


Key:
Conditions in all cases: both partners purified
[1] = target: T1, R411A-α2 (E. coli class Ia …); assay: spectrophotometric competitive inhibition assay (enzyme activity); R411A-α2 used as the inhibitor, 10 nM to 5 μM; D2O assay buffer; relative activities in the presence of inhibitor fit to the standard Kd equation (eq. 1); average of two replicates
[2] = target: T2, R411A-α2, E. coli class Ia …; assay: competitive inhibition assay; Kd for α2 mutant and wt-β2, determined in H2O and D2O buffers by the competitive inhibition assay of ref. 42; details in SI-2, Fig. S2
[3] = target: T3, NH2Y731/R411A-α2, E. coli class Ia …; assay: as above

Row | Kd [1] [nM] | Kd [2] [nM] | Kd [3] [nM] | Binder
1 | 900 ± 190 | – | – | wt-β2 (E. coli class Ia ribonucleotide reductase subunit β2, wild type) (enzyme, UniProt P69924 1-376, looked up, tyrosyl radical at Y122 (1.2 Y•/β2), di-iron cofactor, Ribonucleoside-diphosphate reductase 1 subunit beta (β, NrdB), E. coli, wild type; Y122 is Y123 in P69924); Homodimer (β2); source: expressed and purified by standard protocols (7000 nmol min^-1 mg^-1, 1.2 Y•/β2)) MAYTTFSQTKNDQLKEPMFFGQPVNVARYDQQKYDIFEKLIEKQLSFFWRPEEVDVSRDRIDYQALPEHEKHIFISNLKYQTLLDSIQGRSPNVALLPLISIPELETWVETWAFSETIHSRSYTHIIRNIVNDPSVVFDDIVTNEQIQKRAEGISSYYDELIEMTSYWHLLGEGTHTVNGKTVTVSLRELKKKLYLCLMSVNALEAIRFYVSFACSFAFAERELMEGNAKIIRLIARDEALHLTGTQHMLNLLRSGADDPEMAEIAEECKQECYDLFVQAAQQEKDWADYLFRDGSMIGLNKDILCQYVEYITNIRMQAVGLDLPFQTRSNPIPWINTWLVSDNVQVAPQEVEVSSYLVGQIDSEVDTDDLSNFQL
2 | – | 940 ± 330 | 8 ± 1 | wt-β2, E. coli class Ia ribonucleotide reductase subunit β2 (enzyme, UniProt P69924 1-376, looked up, tyrosyl radical at Y122 (1.2 Y˙/β2), E. coli class Ia ribonucleotide reductase subunit beta, with the di-iron tyrosyl radical cofactor (FeIII2–Y122˙)) MAYTTFSQTKNDQLKEPMFFGQPVNVARYDQQKYDIFEKLIEKQLSFFWRPEEVDVSRDRIDYQALPEHEKHIFISNLKYQTLLDSIQGRSPNVALLPLISIPELETWVETWAFSETIHSRSYTHIIRNIVNDPSVVFDDIVTNEQIQKRAEGISSYYDELIEMTSYWHLLGEGTHTVNGKTVTVSLRELKKKLYLCLMSVNALEAIRFYVSFACSFAFAERELMEGNAKIIRLIARDEALHLTGTQHMLNLLRSGADDPEMAEIAEECKQECYDLFVQAAQQEKDWADYLFRDGSMIGLNKDILCQYVEYITNIRMQAVGLDLPFQTRSNPIPWINTWLVSDNVQVAPQEVEVSSYLVGQIDSEVDTDDLSNFQL
